Two molecules from patent publication US20100330158A1, “PROTEIN-ASSISTED DRUG DELIVERY SYSTEM FOR THE TARGETED ADMINISTRATION OF ACTIVE AGENTS” (InnoPharma, LLC, priority 2009, published 2010) can be followed below.

The assay concerns bovine brain microvascular endothelial cells (BBMVECs). In words: Flow cytometry binding of FITC-labeled proteins to BBMVECs. The conditions noted are these: for % of the cells that bind (strongly) to the protein: BBMVECs, 15 minutes; for shift in fluorescence: FITC-labeled protein incubated with BBMVECs at 4° C. (on ice) for 15 minutes. As to the method: The three E. coli recombinant proteins (SfaS, SfaA, OmpA) produced in Example 1 are labeled with fluorescein isothiocyanate (FITC) to allow fluorescent detection of proteins. The proteins are labeled using the Thermo-Fisher Pierce FITC labeling kit (Thermo Fisher Scientific Inc., Waltham, Mass.) according to the manufacturer's protocol. The amounts of protein used for the labeling reaction are 0.75 mg (SfaS), 0.8 mg (OmpA) and 1.25 mg (SfaA).
Flow cytometry is performed by incubating the labeled proteins with BBMVECs. These cells are procured from Cell Applications, Inc (San Diego, Calif.). Cells are mixed with FITC proteins (individually) and incubated on ice or at 37° C. for 15 minutes, then washed, and sorted with flow cytometry.
On the technique in general: In flow cytometry, cells or beads pass a laser one at a time.

B1: SfaA: Recombinant His-tagged S fimbriae protein sfaA variant from E. coli CFT073, SEQ ID NO: 4 (protein)
chain: MKYLLPTAAAGLLLLAAQPAMAMDIGINGTGSMGTVHFKGEVVNAACAVNTNSFDQTVNLGQVRSERLKVDGAKSNPVGFTIELNDCDSQVSAGAGIVFSGPAVTGKTDVLALQSSAAGSATNVGVQTDHTGKVVPLDGTASSTFTLTDGTNKIPFQAVYYATGQATAGIANADATFKVQYQLEHHHHHH
modifications: His tag; E. coli
Consider B1, for which the shift in fluorescence result is “significant shift”. The “% of the cells that bind (strongly) to the protein” value (4° C. (on ice)) was ~37%. Also, for the setting “37° C.”, the “% of the cells that bind (strongly) to the protein” value was ~10%.

B2: SfaS: Recombinant His-tagged S fimbriae protein sfaS variant from E. coli CFT073, SEQ ID NO: 2 (protein)
chain: MASMTGGQQMGRGSMVDTTITVTGRVLPRTCTIGNGGNPNATVVLDNAYTSDLIAANSTSQWKNFSLTLTNCQNVNNVTATFGGTAENTNYYRNTGDATNIMVELQEQGNGNTPLKVGSTKVVTVSNGQATFNLKVRAVSKGNAGAGSINSQITVTYTYALEHHHHHH
modifications: His tag; E. coli
On to B2, for which the shift in fluorescence result is “less significant shift”.
